From article PMC10185304, “Structure of Anabaena flos-aquae gas vesicles revealed by cryo-ET” (Structure (London, England : 1993), 2023)

B1: GvpA from Anabaena flos-aquae (Ana) gas vesicles (natural protein, UniProt P10397 1-71, looked up)
chain: MAVEKTNSSSSLAEVIDRILDKGIVIDAWVRVSLVGIELLAIEARIVIASVETYLKYAEAVGLTQSAAVPA
notes: Gas vesicle structural protein GvpA (~8 kDa), Anabaena flos-aquae (Dolichospermum flos-aquae strain 1403/13F); polymerised into the helical filament that forms the gas vesicle shell; Native protein as it stands in purified gas vesicles; also called Ana GvpA; major structural protein; source: endogenous, in gas vesicles isolated from Anabaena flos-aquae by buoyancy purification
B2: GvpC from Anabaena flos-aquae (Ana) gas vesicles (natural protein, UniProt P09413 1-193, looked up)
chain: MISLMAKIRQEHQSIAEKVAELSLETREFLSVTTAKRQEQAEKQAQELQAFYKDLQETSQQFLSETAQARIAQAEKQAQELLAFHKELQETSQQFLSATAQARIAQAEKQAQELLAFYQEVRETSQQFLSATAQARIAQAEKQAQELLAFHKELQETSQQFLSATADARTAQAKEQKESLLKFRQDLFVSIFG
notes: Gas vesicle protein GvpC, Anabaena flos-aquae (Dolichospermum flos-aquae strain 1403/13F); five 33-residue repeats plus short N and C termini; in PDB 8GBS it is modelled only as a poly-Ala chain of one repeat's length; removed with 6 M urea to give stripped (AnaS) vesicles; also called Ana GvpC; accessory protein GvpC; source: endogenous, in native gas vesicles isolated from Anabaena flos-aquae …

How the values were obtained:
Assay in all cases: cryo-EM structure; cryo-electron tomography with subtomogram averaging of the shell of native Ana gas vesicles (7.7 Å) and of urea-stripped AnaS gas vesicles (7.3 Å), 10 mM HEPES pH 7.5; GvpA homology model (from PDB 7R1C) and a poly-Ala helix for GvpC fitted as rigid bodies
[1] = molecular target: the molecule itself
[2] = molecular target: B2; settings: both partners purified
[3] = molecular target: B1; settings: both partners purified

binding result [2] | stoichiometry N [3] [GvpC per GvpA] | Binder | binding result [1]
binds | – | B1 | binds
– | ~0.05 | B2 | –
